Test results published in PMC3962895.
pKd: −log10 of the molar value.

Molecular target: dEV8 (8-mer self-peptide) peptide on H-2Kb (mouse)
Experiment: data from

pKd: 4.08
Substance: 2C TCR
